In general, IC50 refers to the concentration needed to halve the response being measured. High values mean weaker potency in that assay, low ones greater potency in that assay. As usually defined, the Kd is the concentration at which binding is half-saturated. A low value points to a tighter complex. Broadly, the koff is the first-order rate constant of dissociation.

Assay [1] has as its target T1, biotinylated SARS-CoV-2 spike glycoprotein (SARS-CoV-2, UniProt P0DTC2 16-1213).
Assay [2] has as its target T2, SARS-CoV-2 spike glycoprotein (his-tagged SARS-CoV-2 RBD) (SARS-CoV-2, UniProt P0DTC2 319-541).
T2 construct: domain: RBD; also called COVID-19 RBD; wild-type spike glycoprotein
The experiment in a line: BLI (Octet), his-tagged SARS-CoV-2 RBD on anti-His biosensor. On the technique in general: Biolayer interferometry detects binding as a change in optical thickness at a sensor tip.

Assay [3] addresses T1, biotinylated SARS-CoV-2 spike …. The source holds these as a separate data set.
Assay [4] concerns the target T3, polymeric immunoglobulin receptor (pIgR), his-tagged (human, UniProt P01833 19-638). The experiment in a line: BLI (Octet): his-tagged pIgR on anti-His (HIS2) biosensors, protein in solution at 10 µg/mL, 90 s association, 90 s dissociation.
For assay [5], the target named is T3, polymeric immunoglobulin receptor …. Put plainly: BLI (Octet), his-tagged pIgR on anti-His biosensor.

Like-named read-outs stand apart in the source and are kept apart here.

T3 sequence (P01833 19-638 limits assumed): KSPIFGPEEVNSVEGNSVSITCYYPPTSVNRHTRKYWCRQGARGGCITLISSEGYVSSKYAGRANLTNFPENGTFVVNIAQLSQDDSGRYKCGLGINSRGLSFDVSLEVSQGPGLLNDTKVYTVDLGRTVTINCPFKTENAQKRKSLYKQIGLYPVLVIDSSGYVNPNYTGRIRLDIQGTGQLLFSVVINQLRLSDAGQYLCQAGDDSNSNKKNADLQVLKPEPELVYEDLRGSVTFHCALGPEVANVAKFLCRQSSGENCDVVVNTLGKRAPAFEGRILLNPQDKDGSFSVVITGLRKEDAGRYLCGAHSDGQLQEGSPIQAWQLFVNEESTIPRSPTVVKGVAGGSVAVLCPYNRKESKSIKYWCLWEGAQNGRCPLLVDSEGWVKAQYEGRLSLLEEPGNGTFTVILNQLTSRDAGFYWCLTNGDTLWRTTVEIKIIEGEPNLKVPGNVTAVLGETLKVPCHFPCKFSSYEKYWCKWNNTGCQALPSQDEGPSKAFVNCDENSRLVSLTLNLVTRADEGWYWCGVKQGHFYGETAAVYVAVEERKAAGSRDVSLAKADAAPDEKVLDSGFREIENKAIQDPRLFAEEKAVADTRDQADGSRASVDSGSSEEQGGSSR

B1: SAD-S35 (antibody, human IgG1, kappa, V domains shown)
VH: QVQLVESGGGLVQPGGSLRLSCAASGITVSSNYMSWVRQAPGKGLEWVSVIYSGGSTYYADSVKGRFSISRDNSKNTLYLQMNSLRAEDTAVYYCARDLQERGGMDVWGQGTTVTVSS
VL: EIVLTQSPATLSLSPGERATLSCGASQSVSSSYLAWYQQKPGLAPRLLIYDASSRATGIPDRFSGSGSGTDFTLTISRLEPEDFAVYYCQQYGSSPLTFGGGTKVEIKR
notes: also called Acro Biosystems cat. #SAD-S35
In assay [1], B1 had a 50% inhibitory concentration (IC50) of 0.323 nM. In addition, in assay [2], binding was put at a Kd of 14.3 nM, the “Relative Kd (compared to CR3022)” value was 12 and the dissociation rate constant (koff) came to 8.91e-06 s⁻¹.

B2: D001 (antibody, V domains shown)
VH: QVQLQQSGPELMKPGASVKISCKASGYSFTNYYIHWVKQSHGKSLEWIGYIDPFNGGTSDNLKFKGAATLTVDKSSSTAYMHLSSLTSEDSAVYYCARSEYDPYYVMDYWGQGTSVTVSS
VL: EIVLTQSPDTLSVTPGDSVSLSCRASQSISSNLHWYQQKSHESPRLLIKYASQSISGIPSRFSGSGSGTDFTLSINSVETEDFGIYFCQQTNFWPYTFGGGTKLEIKR
notes: also called Sino Biological cat. #40150-D001
Consider B2, for which the results for the IC50 in assay [1] and in assay [3] were 0.299 nM and 0.2 nM, respectively. For the same molecule, in assay [2], the Kd is 15 nM. In addition, the koff in assay [2] turned out to be 1.1e-05 s⁻¹. In addition, the binding result in assay [4] was “no binding (tested: 10 µg/mL)”.

B3: CR3022 (antibody)
heavy: not shown
light: […]
Consider B3, for which, in assay [5], the binding result is “no binding (tested: 10 µg/mL)”.

Source of the values: patent publication US20220033522A1 (Janssen / Centocor, published 2022).
